This data set has as its target FasR full-length (crystallisation) (Mycobacterium tuberculosis H37Rv, UniProt O05858 1-228). Put plainly: X-ray crystallography. Particulars: protein: recombinant; tags: N-terminal His6-TEV, likely cleaved with TEV; chain copies: 2; blunt.

B1: Pfas25nt (FwPfas25nt/RvPfas25nt) (dsDNA)
DNA 1: TACCCGTACGTAGAACTCGCCAGTA
DNA 2: TACTGGCGAGTTCTACGTACGGGTA
As to B1, the binding result was “binds”.
